Assays:
[1] = target: His10-AlpC (Cg1890), actin-like protein of the prophage CGP3 of Corynebacterium glutamicum ATCC 13032 (Corynebacterium glutamicum ATCC 13032 (prophage CGP3)); assay: co-sedimentation; AlpC and AlpA (or control protein) equimolar, 5 uM each, 20 ul, EMSA buffer (20 mM Tris/HCl pH 7.5, 50 mM KCl, 10 mM MgCl2, 5% glycerol, 0.5 mM EDTA, 0.005% Triton X-100), 30°C 30 min, with or without 1 mM ATP and/or 100 ng DNA (500 bp upstream of alpA); 16 100 x g 1 h; SDS-PAGE, Coomassie, ImageQuant TL
[2] = substrate: Nc1nc2c(ncn2[C@@H]2O[C@H](COP(=O)(O)OP(=O)(O)OP(=O)(O)O)[C@@H](O)[C@H]2O)c(=O)[nH]1; assay: purified protein; type: biochemical, Corynebacterium glutamicum; settings: 1 uM protein, equimolar MgSO4, 50 mM Tris/HCl pH 7.5, 150 mM NaCl, 10% glycerol, 30 °C
[3] = substrate: Nc1ncnc2c1ncn2[C@@H]1O[C@H](COP(=O)(O)OP(=O)(O)OP(=O)(O)O)[C@@H](O)[C@H]1O; assay: purified protein; type: biochemical, Corynebacterium glutamicum; settings: 1 uM protein, equimolar MgSO4, 50 mM Tris/HCl pH 7.5, 150 mM NaCl, 10% glycerol, 30 °C

**Q.** Which percent of AlpA co-sedimented with AlpC (with ATP and DNA) [1] does the source give for “His10-AlpA (Cg1891), adaptor protein of the prophage CGP3 of Corynebacterium glutamicum (natural protein)” here?
**A.** The percent of AlpA co-sedimented with AlpC (with ATP and DNA) was 38%.

**Q.** What about the percent of AlpA co-sedimented with AlpC (with ATP) [1] of the same molecule?
**A.** The percent of AlpA co-sedimented with AlpC (with ATP) was 30%.

B1: AlpC (Corynebacterium glutamicum ATCC 13032) (protein)
chain: MTSAVNVQKKTTQKVLKPINTKNYSATDAVQTGQHGSALGSNIGVYTYTAGLDIGNGYVKGIIEATGDTTGTSVDVIDMPSAATRMSRPTEVPEPDDTAVAVTGADFFNHIDTNFNSPMVKGNYRYLCGTRSLSARGSLEEFDLVGNRSKAEQELSKVLVMAVLAAKAVKDFVAAHGRIPQVAVEGDPGVLRVHTYLALALPINEYVGHRHGYKAQFMGDGAANPAVHVVTVNNFETPATVQLIFERVEVIAEGASAQYAITAGGEVLMNGMLADVRSKGLALEGVTAGDVLQARHTIGVDVGEGTVNFPVFTDGRFNHDASRAYDKGYGTVLESAIQAMDDAGLAHNFNSRKQLADYLQRPPSALKRNFYTRVEQHVDQEAVFFVQDVAAEFARVLSDVGALTEVAFVYGGGSGPLRDRLHEALLIKAAEMGSEDTFPVLYLDSAYSRKLNREGLMIAARSIAAKARK
notes: N-terminal His10 tag kept (His10-AlpC), expressed in E. coli BL21 (DE3) pLysS, HisTrap and Superdex 200 purified; encoded by cryptic prophage CGP3; polymerizes with nucleotide and Mg2+
**Q.** Which results are given for B1?
**A.** Km [2]: 430 µM; Km [3]: 200 µM

Source: publication PMC4446434, “A prophage-encoded actin-like protein required for efficient viral DNA replication in bacteria” (Nucleic Acids Research, 2015)
